Target: Herceptin-GlcNAc
Test: cell-based or functional assay

EndoSz-D234M (enzyme)
time dependent transglycosylation (HPLC, percent of Herceptin-GlcNAc remaining): 0%
